IC50, inhibition of TNFα-induced Caspase 3 activity in U937 cells data for 1 substance are collected here from patent publication US20240026036A1.

The assay concerns the target Recombinant human TNFα (R&D Systems) (human) (UniProt P01375).

Sequence of Recombinant human TNFα (R&D Systems) (human) (P01375 77-233 limits assumed): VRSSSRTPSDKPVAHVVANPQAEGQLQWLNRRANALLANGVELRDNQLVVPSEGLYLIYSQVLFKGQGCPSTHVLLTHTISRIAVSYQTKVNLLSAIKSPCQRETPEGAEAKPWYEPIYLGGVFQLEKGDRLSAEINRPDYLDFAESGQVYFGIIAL

etanercept (Fc fusion): the IC50, inhibition of TNFα-induced Caspase 3 activity in U937 cells came out at 144 pM.
